In patent US20230406912A1, “HUMANISED ANTIBODIES AGAINST PATHOGENIC FUNGI” (priority 2020, published 2023):
Positions count from the first letter of the chain named.

B1: H1 K1: humanised mAb, first approach CDR-grafting; VH H1 (SEQ ID NO: 16), VL K1 (SEQ ID NO: 15) (antibody, V domains shown)
VH: QVQLVQSGAEVKKPGASVKVSCKASGYTLSSYWMHWVRQAPGQGLEWMGIILPGSGSTSYAQKFQGRVTMTRDTSTSTVYMELSSLRSEDTAVYYCAREGWYFDVWGAGTTVTVSS
VL: DVVMTQSPLSLPVTLGQPASISCRSSQSLLYSNGNTHLNWFQQRPGQSPRRLIYLVSNRDSGVPDRFSGSGSGTDFTLKISRVEAEDVGVYYCVQGTHFPYTFGGGTKLEIK
modifications: VH-H1; VL-K1
B2: H5 K5: humanised mAb, third approach (Kabat); VH H5 (SEQ ID NO: 22), VL K5 (SEQ ID NO: 21) (antibody, V domains shown)
VH: QVQLQQSGAELKKPGASVKISCKASGYTLSSYWLEWVRQRPGQGLEWIGEILPGSGSTNYNEKFKGRATFTADTSTNTAYMELSSLTSEDSAVYYCAREGWYFDVWGQGTTVTVSS
VL: B1 VL with V2I, R24K, F41Y, N58K, R59L
modifications: VH-H5; VL-K5
B3: H6 K1: humanised mAb combining heavy chain H6 (SEQ ID NO: 24) and light chain K1 (SEQ ID NO: 15) (antibody, V domains shown)
VH: B2 VH with L34I, E35H
VL: B1 VL
modifications: VH-H6; VL-K1
B4: H5 K7: humanised mAb combining heavy chain H5 (SEQ ID NO: 22) and light chain K7 (SEQ ID NO: 25) (antibody, V domains shown)
VH: B2 VH
VL: B1 VL with V2I, R24K, F41Y, Q42L, R50K, N58K, R59L
modifications: VH-H5; VL-K7
B5: H3 K1: humanised mAb combining heavy chain H3 (SEQ ID NO: 20) and light chain K1 (SEQ ID NO: 15) (antibody, V domains shown)
VH: QVQLVQSGAEVKKPGASVKVSCKASGYTLSSYWIHWVRQAPGQGLEWIGWILPGSGSTNYAQKFQGKATITADKSTSTAYMELSSLRSEDTAVYYCAREGWYFDVWGQGTLVTVSS
VL: B1 VL
modifications: VH-H3; VL-K1
B6: H3/K3: humanised recombinant Ab, second approach; VH H3 (SEQ ID NO: 20), VL K3 (SEQ ID NO: 19) (antibody, V domains shown)
VH: B5 VH
VL: DIVMTQTPLSLSVTPGQPASISCKSSQSLLYSNGNTHLNWYLQRPGQSPQLLIYLVSNRASGVPDRFTGSGSGTDFTLKISRVEAEDVGVYYCVQGTHFPYTFGGGTKVEIK
modifications: VH-H3; VL-K3
B7: H5 K3: humanised mAb combining heavy chain H5 (SEQ ID NO: 22) and light chain K3 (SEQ ID NO: 19) (antibody, V domains shown)
VH: B2 VH
VL: B6 VL
modifications: VH-H5; VL-K3

Assays:
C. auris [1] = details: different C. auris strains, literature; cited from earlier work
C. auris [2] = assay: Time-kill curve, drug alone and combined with hmAb 2G8; assay type: cell-based
Description: To support and deepen the data coming from MIC assays, a time-kill curve was elaborated to evaluate how the hmAb 2G8 combined with caspofungin or amphotericin B could improve their basal activity on C. auris.

C. auris [3] = assay: EUCAST antifungal MIC assay, drug alone and combined with hmAb 2G8; assay type: cell-based; details: Candidozyma auris; 48 hours, drug alone; read-out: MIC50
Procedure: To evaluate the susceptibility of C. auris to caspofungin, amphotericin B and their combination with hmAb 2G8, we followed the EUCAST antifungal MIC method (EUCAST E.DEF. 7.3). Antifungal drugs were purchased from Sigma-Aldrich.
The caspofungin and amphotericin B range concentrations analysed were reported in EUCAST document. Those concentrations were tested alone and in combination with 0.25, 2.5, 25 and 250 μg/ml of humanised antibody.
The plates microdilution and the yeast inoculum were prepared as reported in EUCAST document. The wells with 100 μl of 2X final antifungal drugs concentration in RPMI 2% G medium were inoculated with 100 μl (1-5×10^5 CFU/ml) of yeast suspension of C. auris. The monoclonal antibody was added to the samples of yeast suspension to test the combination drug-antibody. The plates were incubated at 37° C. for 24 and 48 hours and read after incubation at 405 nm. The assays were performed in triplicate.
As reported in EUCAST, echinocandins' MIC50 is the lowest drug concentration giving inhibition of≥50% of that of the drug-free control (dotted line). For amphotericin B, MIC50 is the same as for echinocandins while MIC90 is considered as the lowest concentration giving a growth inhibition of≥90% of that of the drug-free control (dotted bold line). […] At 48 hours (D), amphotericin B alone has its MIC50 and 90 at 1 μg/ml.

[4] = ELISA assay on laminarin-coated plates; assay type: binding; details: for Abs 405 nm: ELISA of supernatants of humanised mAbs; for activity in ELISA test: recombinant antibody, laminarin-coated plates
Procedure: The activity of the purified antibody was then tested by ELISA assay. 96-well plates were coated with 50 μg/ml Laminarin (Sigma-Aldrich, L9634) in 0.05 M carbonate buffer pH 9.6 overnight at 4° C. Nonspecific interactions were blocked with 100 μL/well blocking solution, 3% (w/v) BSA in PBS-Tween 20 (8 g/L NaCl, 0.2 g/L KH2PO4, 2.9 g/L Na2HPO4·12 H2O, 0.2 g/L KCI, 0.05% (v/v) Tween 20, pH 7.4) at 37° C. for 1 h. The plates were then incubated with decreasing concentrations of hmAb 2G8_first approach (comparative purpose) (from 3.12 μg/ml to 0.003 μg/ml, each concentration was tested in triplicate) in blocking solution for 2 h at 37° C. At the same temperature and for the same time, 100 μL Goat anti-human-HRP diluted 1:1000 in blocking solution was poured in each well. After every single passage the plates were washed 5 times with PBS-Tween 20. To reveal the binding, 100 μl of 5 mg-ABTS tablet (Roche Diagnostics) dissolved in 12 ml of sodium citrate (0.05 M, pH 3) and supplemented with 1:1000 dilution hydrogen peroxide (Carlo Erba) was added and after 15, 30, 45 and 60 min the absorbance at 405 nm was measured. For the whole measuring time the plates were left in the dark. IC50 analysis of ELISA test was performed with Prism. The TEST was performed in triplicate.
The surnatants collected from the obtained humanised mAb were tested in ELISA test.
Four supernatants from hmAb according to the invention (H5/K3; H5/K1; H5/K7; H5/K5) were purified to confirm the data. 8 scalar dilutions, starting from 5 μg/ml, were tested.
The purified humanised mAb 2G8 H5/K1 was then tested in an ELISA assay using laminarin as a target.

Molecule	Abs 405 nm [4]	activity in ELISA test [4]	other results
C[C@@H](c1ncncc1F)[C@](O)(Cn1cncn1)c1ccc(F)cc1F [voriconazole]	–	–	MIC (C. auris [1]): about 16 mg/L
CC[C@H](C)C[C@H](C)CCCCCCCCC(=O)N[C@H]1C[C@@H](O)[C@@H](NCCN)NC(=O)[C@@H]2[C@@H](O)CCN2C(=O)[C@H]([C@H](O)CCN)NC(=O)[C@H]([C@H](O)[C@@H](O)c2ccc(O)cc2)NC(=O)[C@@H]2C[C@@H](O)CN2C(=O)[C@H]([C@@H](C)O)NC1=O [caspofungin]	–	–	fungistatic effect, log (time-kill curve) (C. auris [2]; CAS 0.125 μg/ml, 24 h): −1.88; fungistatic effect, log (time-kill curve) (C. auris [2]; CAS 0.125 μg/ml, 48 h): −2.10; fungistatic effect, log (time-kill curve) (C. auris [2]; CAS 0.25 μg/ml, 24 h, combination with 250 μg/ml hmAb 2G8 H5K1): −1.11; fungistatic effect, log (time-kill curve) (C. auris [2]; CAS 0.25 μg/ml, 48 h, combination with 250 μg/ml hmAb 2G8 H5K1): −1.71; MIC50 (C. auris [3]): 0.25 mg/L
B1	0.35	not active	–
B2	1.61	showed some activity	activity / affinity compared with murine 2G8 ([4]; ELISA): lower than the activity observed for the murine 2G8
B3	0.27	–	–
B4	0.82	–	–
B5	0.4	–	–
B6	–	not active	–
B7	2.47	–	–
